{"source": "patent US20120028811", "about": "“DEVICE FOR RAPID IDENTIFICATION OF NUCLEIC ACIDS FOR BINDING TO SPECIFIC CHEMICAL TARGETS” (DONGGUK UNIVERSITY, published 2012)", "biological_target": "T1, TATA-binding protein (TBP) (UniProt P13393 P13393:1-240)", "T1 sequence": "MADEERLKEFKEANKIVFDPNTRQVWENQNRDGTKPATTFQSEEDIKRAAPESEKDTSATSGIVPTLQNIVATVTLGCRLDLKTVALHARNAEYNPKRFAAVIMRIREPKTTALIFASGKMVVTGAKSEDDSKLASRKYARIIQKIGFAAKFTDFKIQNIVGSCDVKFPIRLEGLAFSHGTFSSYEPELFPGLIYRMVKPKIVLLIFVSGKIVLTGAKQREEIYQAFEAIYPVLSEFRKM", "test": "fluorescence microscopy of TBP in sol-gel; binding buffer 25 mM Tris pH 8, 100 mM NaCl, 25 mM KCl, 10 mM MgCl2", "settings": "tags: His-tag, full length, expressed in E. coli BL21-DE3; label: 5'-Cy3 on top strand", "procedure": "Sol-gels with TBP were enclosed with the PDMS lid. After encapsulation, the channels were washed extensively with the PBS buffer (binding buffer) by connecting one end of the main channel to a syringe pump (Pump 11, Harvard Apparatus, Holliston, Mass.). Following the pre-washing step, the silicate gel spot was blocked for 1 hour with 1× binding buffer that contained 25 mM Tris-Cl (pH 8), 100 mM NaCl, 25 mM KCl and 10 mM MgCl₂ with 5% skim milk. The blocking buffer works as a nonspecific competitor in the reaction mixture, which helps to achieve the selection of high-affinity molecules. […] After binding, the interaction of immobilized TBP proteins and Cy-3 labeled TATA DNA was monitored by fluorescence microscopy.\nThe Cy-3-labeled TATA DNA has a high affinity for TBP similar to that of the conventionally selected aptamers. […] The measured melting point of TATA DNA was 72° C. […] The fluorescence intensity of the sol-gel except for the negative sol-gel was detected under the fluorescent microscope (FIG. 6).", "data": [{"binder": "TATA DNA (dsDNA) DNA 1: GGGAATTCGGGCTATAAAAGGGGGATCCGG DNA 2: CCGGATCCCCCTTTTATAGCCCGAATTCCC", "values": [{"measurement": "binding result", "value": "binds"}]}]}
